# Measured values reported in the supplement of paper PMC10201428.
# ± gives the standard deviation of the averaged measurements.
# System: VchCAST RNA-guided transposition machinery (E. coli BL21(DE3) host, lacZ target)
# Assay: relative integration efficiency (T-RL orientation) vs wild-type transposon end (log2 (normalized fold change)); transposon end mutated: left end; higher = more efficient transposition
# Method: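 Pooled, barcoded VchCAST (Tn6677) mini-transposon donor libraries; each variable transposon-end sequence sits in a fixed pDonor mini-transposon context (10-bp barcode and cargo not included). Left- or right-end libraries were co-transformed with pEffector (TniQ-Cascade, TnsABC, lacZ crRNA, T7, 0.1 mM IPTG) into E. coli BL21(DE3) and grown 18 h at 37 C. T-LR and T-RL junction amplicons were sequenced; output/input barcode fold change was normalised to the mean of four wild-type barcodes and log2-transformed. Two biological replicates; zero-count/undetected variants carry floor values (-10 / -15), censored here. Barcode uncoupling by PCR recombination adds noise.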
sequence,measurement,value
AATGTTGTTGATGCAACCATAAAGTGATATTTAATAATTATTTAGCCGACTACCAGGCCAACACCCCACCAACGCGCGGTCGCGAGACACCCCACCAACGCCTGGTCGCGGGGGTGTCCGATCTGATTTCAGCAAAACTACTGCAGTAAGAA,relative integration efficiency (log2),-7.02 ± 1.2
AATGTTGTTGATGCAACCATAAAGTGATATTTAATAATTATTTATAACAACCATAAAGTGATATTTACAACCATATATTGATATCTCACAAAACAACCATAAGTTGATATTTTTGTGAATCGAGTATTTCAGCAAAACTACTGCAGTAAGAA,relative integration efficiency (log2),-6.17 ± 1.2
AATGTTGTTGATGCAACCATAAAGTGATATTTAATAATTATTTATAACAACCATATATTGATATCTCACAAAACAACCATAAGTTGATATTTTTCAGCAACTTAACCACAAAATGTGAATCGAGTATTTCAGCAAAACTACTGCAGTAAGAA,relative integration efficiency (log2),-5.63 ± 0.81
AATGTTGTTGATGCAACCATAAAGTGATATTTAATAATTATTTATAACAACCATATATTGATATCTCACAAAACAACCATAAGTTGATATTTTTGTGAATCGAGTATTTCAGCAAAACTACTGCAGTAAGAAAGTTACTTCGTGGTATGGGA,relative integration efficiency (log2),-6.45 ± 1
AATGTTGTTGATGCAACCATAAAGTGATATTTAATAATTATTTATAATCACAACCATATATTGATATCTCGCAACTTAACCACAAAAACAAAACAACCATAAGTTGATATTTTTGTGAATCGAGTATTTCAGCAAAACTACTGCAGTAAGAA,relative integration efficiency (log2),-6.71 ± 0.83
AATGTTGTTGATGCAACCATAAAGTGATATTTAATAATTATTTATAATCAGACCAGGCCAACACCCCACCAACGCGCGGTCGCGAGACACCCCACCAACGCCTGGTCGCGGGGGTGTCCGATCTGATTTCAGCAAAACTACTGCAGTAAGAA,relative integration efficiency (log2),-6.56 ± 1.8
AATGTTGTTGATGCAACCATAAAGTGATATTTAATAATTATTTATAATCAGCAAAGGCCAACACCCCACCAACGCGCGGTCGCGAGACACCCCACCAACGCCTGGTCGCGGGGGTGTCCGATCTGATTTCAGCAAAACTACTGCAGTAAGAA,relative integration efficiency (log2),-6.56 ± 1.3
AATGTTGTTGATGCAACCATAAAGTGATATTTAATAATTATTTATAATCAGCAACAACCATATATTGATATCTCACAAAACAACCATAAGTTGATATTTTTGTGAATCGAGTATTTCAGCAAAACTACTGCAGTAAGAAAGTTACTTCGTGG,relative integration efficiency (log2),-7.72 ± 1.1
AATGTTGTTGATGCAACCATAAAGTGATATTTAATAATTATTTATAATCAGCAACAACCATATATTGATATCTCCTTAACCACAAAAACAAAACAACCATAAGTTGATATTTTTGTGAATCGAGTATTTCAGCAAAACTACTGCAGTAAGAA,relative integration efficiency (log2),-6.46 ± 1.4
AATGTTGTTGATGCAACCATAAAGTGATATTTAATAATTATTTATAATCAGCAACCAACCATATATTGATATCTCACAAAACAACCATAAGTTGATATTTTTGTGAATCGAGTATTTCAGCAAAACTACTGCAGTAAGAAAGTTACTTCGTG,relative integration efficiency (log2),-6.44 ± 0.52
AATGTTGTTGATGCAACCATAAAGTGATATTTAATAATTATTTATAATCAGCAACCAACCATATATTGATATCTCTTAACCACAAAAACAAAACAACCATAAGTTGATATTTTTGTGAATCGAGTATTTCAGCAAAACTACTGCAGTAAGAA,relative integration efficiency (log2),-5.89 ± 1.6
AATGTTGTTGATGCAACCATAAAGTGATATTTAATAATTATTTATAATCAGCAACCATATATTGATATCTCACAAAACAACCATAAGTTGATATTTTTGTGAATCGAGTATTTCAGCAAAACTACTGCAGTAAGAAAGTTACTTCGTGGTAT,relative integration efficiency (log2),-8.36 ± 0.35
AATGTTGTTGATGCAACCATAAAGTGATATTTAATAATTATTTATAATCAGCAACCATATATTGATATCTCCAACTTAACCACAAAAACAAAACAACCATAAGTTGATATTTTTGTGAATCGAGTATTTCAGCAAAACTACTGCAGTAAGAA,relative integration efficiency (log2),-6.03 ± 0.52
AATGTTGTTGATGCAACCATAAAGTGATATTTAATAATTATTTATAATCAGCAACGGCCAACACCCCACCAACGCGCGGTCGCGAGACACCCCACCAACGCCTGGTCGCGGGGGTGTCCGATCTGATTTCAGCAAAACTACTGCAGTAAGAA,relative integration efficiency (log2),-6.79 ± 1.6
AATGTTGTTGATGCAACCATAAAGTGATATTTAATAATTATTTATAATCAGCAACTCAACCATATATTGATATCTCTAACCACAAAAACAAAACAACCATAAGTTGATATTTTTGTGAATCGAGTATTTCAGCAAAACTACTGCAGTAAGAA,relative integration efficiency (log2),-4.84 ± 0.92
AATGTTGTTGATGCAACCATAAAGTGATATTTAATAATTATTTATAATCAGCAACTTAACCAACCATATATTGATATCTCACAAAACAACCATAAGTTGATATTTTTGTGAATCGAGTATTTCAGCAAAACTACTGCAGTAAGAAAGTTACT,relative integration efficiency (log2),-5.17 ± 1.5
AATGTTGTTGATGCAACCATAAAGTGATATTTAATAATTATTTATAATCAGCAACTTAACCAACCATATATTGATATCTCCACAAAAACAAAACAACCATAAGTTGATATTTTTGTGAATCGAGTATTTCAGCAAAACTACTGCAGTAAGAA,relative integration efficiency (log2),-2.66 ± 0.88
AATGTTGTTGATGCAACCATAAAGTGATATTTAATAATTATTTATAATCAGCAACTTAACCACAAAACAACACGCGCGGTCGCGAGACACCCCACCAACGCCTGGTCGCGGGGGTGTCCGATCTGATTTCAGCAAAACTACTGCAGTAAGAA,relative integration efficiency (log2),-7.6 ± 2.4
AATGTTGTTGATGCAACCATAAAGTGATATTTAATAATTATTTATAATCAGCAACTTAACCACAAAACAACCATATATGTCGCGAGACACCCCACCAACGCCTGGTCGCGGGGGTGTCCGATCTGATTTCAGCAAAACTACTGCAGTAAGAA,relative integration efficiency (log2),-6.15 ± 1.3
AATGTTGTTGATGCAACCATAAAGTGATATTTAATAATTATTTATAATCAGCAACTTAACCACAAAACAACCATATATTGATAACAAAACAACCATAAGTTGATATTTTTGTGAATCGAGTATTTCAGCAAAACTACTGCAGTAAGAAAGTT,relative integration efficiency (log2),-4.08 ± 0.82
AATGTTGTTGATGCAACCATAAAGTGATATTTAATAATTATTTATAATCAGCAACTTAACCACAAAACAACCATATCGGTCGCGAGACACCCCACCAACGCCTGGTCGCGGGGGTGTCCGATCTGATTTCAGCAAAACTACTGCAGTAAGAA,relative integration efficiency (log2),-6.09 ± 0.98
AATGTTGTTGATGCAACCATAAAGTGATATTTAATAATTATTTATAATCAGCAACTTAACCACAAAAGTTGGTATATAACTATAGAGACAAAAGTTGGTATTCAACTATAAAATGTGAATCGAGTATTTCAGCAAAACTACTGCAGTAAGAA,relative integration efficiency (log2),-6.13 ± 2.2
AATGTTGTTGATGCAACCATAAAGTGATATTTAATAATTATTTATAATCAGCAACTTAACCACAAAATGTGAATCGAGTATTTCAGCAAAACTACTGCAACCATATATTGATATCTCACAAAACAACCATAAGTTGATATTTTCAGTAAGAA,relative integration efficiency (log2),-6.39 ± 0.78
AATGTTGTTGATGCAACCATAAAGTGATATTTAATAATTATTTATAATCAGCAACTTAACCACAAAATGTGAATCGAGTATTTCAGCCAACCATATATTGATATCTCACAAAACAACCATAAGTTGATATTTTAAAACTACTGCAGTAAGAA,relative integration efficiency (log2),-5.8 ± 1.9
AATGTTGTTGATGCAACCATAAAGTGATATTTAATAATTATTTATAATCAGCAACTTAACCACAAACACCAACGCGCGGTCGCGAGACACCCCACCAACGCCTGGTCGCGGGGGTGTCCGATCTGATTTCAGCAAAACTACTGCAGTAAGAA,relative integration efficiency (log2),-6.34 ± 0.81
AATGTTGTTGATGCAACCATAAAGTGATATTTAATAATTATTTATAATCAGCAACTTAACCACAACCATATATTGATATCTCACAAAACAACCATAAGTTGATATTTTTGTGAATCGAGTATTTCAGCAAAACTACTGCAGTAAGAAAGTTA,relative integration efficiency (log2),-5.27 ± 0.97
AATGTTGTTGATGCAACCATAAAGTGATATTTAATAATTATTTATAATCAGCAACTTAACCACCAACCATATATTGATATCTCAAAAACAAAACAACCATAAGTTGATATTTTTGTGAATCGAGTATTTCAGCAAAACTACTGCAGTAAGAA,relative integration efficiency (log2),-2.83 ± 0.93
AATGTTGTTGATGCAACCATAAAGTGATATTTAATAATTATTTATAATCAGCAACTTAACCACCAACCATATATTGATATCTCACAAAACAACCATAAGTTGATATTTTTGTGAATCGAGTATTTCAGCAAAACTACTGCAGTAAGAAAGTT,relative integration efficiency (log2),-4.85 ± 1.1
AATGTTGTTGATGCAACCATAAAGTGATATTTAATAATTATTTATAATCAGCAACTTAACCACCCCCACCAACGCGCGGTCGCGAGACACCCCACCAACGCCTGGTCGCGGGGGTGTCCGATCTGATTTCAGCAAAACTACTGCAGTAAGAA,relative integration efficiency (log2),-6.56 ± 0.76
AATGTTGTTGATGCAACCATAAAGTGATATTTAATAATTATTTATAATCAGCAACTTAACCCAACCATATATTGATATCTCACAAAAACAAAACAACCATAAGTTGATATTTTTGTGAATCGAGTATTTCAGCAAAACTACTGCAGTAAGAA,relative integration efficiency (log2),-3.11 ± 0.98
AATGTTGTTGATGCAACCATAAAGTGATATTTAATAATTATTTATAATCAGCAACTTAACCCAACCATATATTGATATCTCACAAAACAACCATAAGTTGATATTTTTGTGAATCGAGTATTTCAGCAAAACTACTGCAGTAAGAAAGTTAC,relative integration efficiency (log2),-7.05 ± 1.7
AATGTTGTTGATGCAACCATAAAGTGATATTTAATAATTATTTATAATCAGCAACTTAACCCACCCCACCAACGCGCGGTCGCGAGACACCCCACCAACGCCTGGTCGCGGGGGTGTCCGATCTGATTTCAGCAAAACTACTGCAGTAAGAA,relative integration efficiency (log2),-6.3 ± 1.9
AATGTTGTTGATGCAACCATAAAGTGATATTTAATAATTATTTATAATCAGCAACTTACAACACCCCACCAACGCGCGGTCGCGAGACACCCCACCAACGCCTGGTCGCGGGGGTGTCCGATCTGATTTCAGCAAAACTACTGCAGTAAGAA,relative integration efficiency (log2),-5.66 ± 1.2
